Measured values: patent publication US20160102129A1 (Novo Nordisk, published 2016)
*1 amine or outer side, *2 acyl side, *3 side chain or, on linkers, in order; H or OH if unused. Side-chain parts run from the residue outwards. [ ]: non-standard residue; d: D form. The star is where a group is joined. C18 diacid = O=C(O)CCCCCCCCCCCCCCCCC(=O)*; γGlu = O=C(O)[C@H](CCC(=O)[*:2])N[*:1]; Desaminohistidyl = O=C(CCc1c[nH]cn1)*; Ac4c = NC1(C(=O)O)CCC1; Aib = CC(C)(N)C(=O)O

B1: N^ε34-[(4S)-4-carboxy-4-[[(4S)-4-carboxy-4-[[(4S)-4-carboxy-4-[[(4S)-4-carboxy-4-(17-carboxyheptadecanoylamino)butanoyl]amino]butanoyl]amino]butanoyl]amino]buta … (peptide)
peptide: [Desaminohistidyl][Aib]HGTFTSDVSKYLEEQAAREFIAWLLK([γGlu-γGlu-γGlu-γGlu-C18 diacid])T-NH2
SMILES: CC[C@H](C)[C@H](NC(=O)[C@H](Cc1ccccc1)NC(=O)[C@H](CCC(=O)O)NC(=O)[C@H](CCCNC(=N)N)NC(=O)[C@H](C)NC(=O)[C@H](C)NC(=O)[C@H](CCC(N)=O)NC(=O)[C@H](CCC(=O)O)NC(=O)[C@H](CCC(=O)O)NC(=O)[C@H](CC(C)C)NC(=O)[C@H](Cc1ccc(O)cc1)NC(=O)[C@H](CCCCN)NC(=O)[C@H](CO)NC(=O)[C@@H](NC(=O)[C@H](CC(=O)O)NC(=O)[C@H](CO)NC(=O)[C@@H](NC(=O)[C@H](Cc1ccccc1)NC(=O)[C@@H](NC(=O)CNC(=O)[C@H](Cc1c[nH]cn1)NC(=O)C(C)(C)NC(=O)CCc1c[nH]cn1)[C@@H](C)O)[C@@H](C)O)C(C)C)C(=O)N[C@@H](C)C(=O)N[C@@H](Cc1c[nH]c2ccccc12)C(=O)N[C@@H](CC(C)C)C(=O)N[C@@H](CC(C)C)C(=O)N[C@@H](CCCCNC(=O)CC[C@H](NC(=O)CC[C@H](NC(=O)CC[C@H](NC(=O)CC[C@H](NC(=O)CCCCCCCCCCCCCCCCC(=O)O)C(=O)O)C(=O)O)C(=O)O)C(=O)O)C(=O)N[C@H](C(N)=O)[C@@H](C)O
B2: N^ε34-[2-[[(2S)-2-[[(2S)-4-carboxy-2-[[2-[[(2S)-2-[[(4S)-4-carboxy-4-[[(4S)-4-carboxy-4-(17-carboxyheptadecanoylamino)butanoyl]amino]butanoyl]amino]-3-hydroxypr … (peptide)
peptide: [Desaminohistidyl][Ac4c]HGTFTSDVSKYLEEQAAREFIAWLLK([Gly-Ser-Glu-Gly-Ser-γGlu-γGlu-C18 diacid])T-NH2

What was measured:
human GLP-1 receptor [1] = molecular target: T1, human GLP-1 receptor (human, UniProt P43220 24-463); assay: SPA displacement of [125I]GLP-1(7-36)NH2 from hGLP-1R BHK membranes
T1 construct: whole, on cells; reporter assay on whole cells

human GLP-1 receptor [2] = molecular target: T1, human GLP-1 receptor; assay: cell-based or functional assay
human glucagon receptor [3] = molecular target: T2, human glucagon receptor (human, UniProt P47871 26-477); assay: cell-based or functional assay
T2 sequence (P47871 26-477): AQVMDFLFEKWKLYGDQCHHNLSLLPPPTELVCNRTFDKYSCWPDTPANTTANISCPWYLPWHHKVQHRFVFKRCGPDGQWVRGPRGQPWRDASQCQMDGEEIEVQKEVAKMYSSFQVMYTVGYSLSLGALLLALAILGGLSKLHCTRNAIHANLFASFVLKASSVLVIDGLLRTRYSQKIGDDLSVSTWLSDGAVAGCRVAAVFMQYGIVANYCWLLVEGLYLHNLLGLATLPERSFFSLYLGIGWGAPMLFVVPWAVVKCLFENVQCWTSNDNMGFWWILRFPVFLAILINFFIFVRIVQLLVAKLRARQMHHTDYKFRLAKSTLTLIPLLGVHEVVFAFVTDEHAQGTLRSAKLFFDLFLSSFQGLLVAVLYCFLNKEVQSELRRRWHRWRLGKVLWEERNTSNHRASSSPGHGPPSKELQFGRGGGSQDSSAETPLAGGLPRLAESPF

human glucagon receptor [4] = molecular target: T2, human glucagon receptor; assay: SPA displacement of [125I]-glucagon from human glucagon receptor BHK membranes

Binder | IC50 (human GLP-1 receptor [1]) [nM] | EC50 GLP-1R [pM], CRE luciferase reporter gene assay (human GLP-1 receptor [2]) [pM] | EC50 GlucagonR [pM], CRE luciferase reporter gene assay (human glucagon receptor [3]) [pM] | IC50 (human glucagon receptor [4]) [nM]
B1 | 0.3 | 7 | 44 | 4.2
B2 | 0.1 | 5 | 40 | 4.1
